In patent US20190233517A1 (published 2019):
Where a chain is given by its changes, count along the chain named. Where two headings read alike, the source gives them in different places.

What was measured:
[1] = molecular target: T1, cynomolgus CD3 on primary cynomolgus T cells (UniProt Q95LI5 22-198); test: FACS binding; cyno T cells
T1 epsilon: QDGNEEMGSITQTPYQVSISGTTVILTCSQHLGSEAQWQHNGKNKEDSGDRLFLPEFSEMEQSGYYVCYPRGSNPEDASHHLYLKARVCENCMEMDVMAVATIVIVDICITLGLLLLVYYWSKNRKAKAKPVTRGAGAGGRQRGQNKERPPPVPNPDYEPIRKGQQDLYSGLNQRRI

[2] = molecular target: T2, CD20 on the cell surface of Raji cells (human, UniProt P11836 1-297); test: FACS binding; Raji cells
T2 chain: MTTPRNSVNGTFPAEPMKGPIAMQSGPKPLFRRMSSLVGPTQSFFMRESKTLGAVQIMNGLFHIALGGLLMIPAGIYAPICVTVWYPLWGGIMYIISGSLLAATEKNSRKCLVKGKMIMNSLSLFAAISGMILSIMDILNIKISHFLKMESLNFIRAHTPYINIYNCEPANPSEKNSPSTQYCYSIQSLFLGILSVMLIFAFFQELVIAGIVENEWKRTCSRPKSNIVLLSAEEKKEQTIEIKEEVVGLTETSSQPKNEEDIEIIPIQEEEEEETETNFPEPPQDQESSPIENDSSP

[3] = molecular target: T3, cynomolgus CD20 on transiently transfected HEK 293 cells (cynomolgus, UniProt M4ZHZ6 1-297); test: FACS binding; 293F-cynoCD20 cells
T3 chain: T2 chain with S25P, F31L, T51A, A157V, K217R, N226S, I227V, T239V

[4] = molecular target: T2, CD20 on the cell surface of Raji cells; test: FACS binding; Raji cells
[5] = molecular target: CD3 on the cell surface of Jurkat cells (human, UniProt P07766 23-207; P04234 22-171; P09693 23-182); test: FACS binding; Jurkat cells
[6] = molecular target: T1, cynomolgus CD3 on primary cynomolgus T …; test: FACS
[7] = molecular target: T3, cynomolgus CD20 on transiently …; test: FACS

B1: FIT018a CD20 (Ofatumumab)/CD3 mAb (bispecific antibody)
chain 1: not shown
chain 2: EVQLVESGGGLVQPGRSLRLSCAASGFTFNDYAMHWVRQAPGKGLEWVSTISWNSGSIGYADSVKGRFTISRDNAKKSLYLQMNSLRAEDTALYYCAKDIQYGNYYYGMDVWGQGTTVTVSSASTKGPSVFPLAPSSKSTSGGTAALGCLVKDYFPEPVTVSWNSGALTSGVHTFPAVLQSSGLYSLSSVVTVPSSSLGTQTYICNVNHKPSNTKVDKKVEPKSC
chain 3: ELVVTQEPSLTVSPGGTVTLTCRSSTGAVTTSNYANWVQQKPGQAPRGLIGGTNKRAPGTPARFSGSLLGGKAALTLSGVQPEDEAEYYCALWYSNLWVFGGGTKLTVLGQPKAAPSVTLFPPSSEELQANKATLVCLISDFYPGAVTVAWKADSSPVKAGVETTTPSKQSNNKYAASSYLSLTPEQWKSHRSYSCQVTHEGSTVEKTVAPTECS
EC50 [1]: 3.85 nM | EC50 [2]: 0.0168 µM | EC50 [3]: 14.3 nM

B2: FIT021b (antibody)
chain 1: not shown
chain 2: MEFGLSWLFLVAILKGVQCEVQLVESGGGLVQPGRSLRLSCAASGFTFNDYAMHWVRQAPGKGLEWVSTISWNSGSIGYADSVKGRFTISRDNAKKSLYLQMNSLRAEDTALYYCAKDIQYGNYYYGMDVWGQGTTVTVSSASTKGPSVFPLAPSSKSTSGGTAALGCLVKDYFPEPVTVSWNSGALTSGVHTFPAVLQSSGLYSLSSVVTVPSSSLGTQTYICNVNHKPSNTKVDKKVEPKSC
chain 3: MDMRVPAQLLGLLLLWFPGSRCDIQLTQSPSSLSASVGDRVTMSCKSSQSVLYSANHKNYLAWYQQKPGKAPKLLIYWASTRESGVPSRFSGSGSGTDFTFTISSLQPEDIATYYCHQYLSSWTFGGGTKLEIKRTVAAPSVFIFPPSDEQLKSGTASVVCLLNNFYPREAKVQWKVDNALQSGNSQESVTEQDSKDSTYSLSSTLTLSKADYEKHKVYACEVTHQGLSSPVTKSFNRGEC
EC50 [4]: 7.66 nM

B3: CD3 mAb (described in US2009/0252683) (antibody, V domains shown)
VH: EVQLLESGGGLVQPGGSLKLSCAASGFTFNTYAMNWVRQAPGKGLEWVARIRSKYNNYATYYADSVKDRFTISRDDSKNTAYLQMNNLKTEDTAVYYCVRHGNFGNSYVSWFAYWGQGTLVTVSS
VL: ELVVTQEPSLTVSPGGTVTLTCRSSTGAVTTSNYANWVQQKPGQAPRGLIGGTNKRAPGTPARFSGSLLGGKAALTLSGVQPEDEAEYYCALWYSNLWVFGGGTKLTVL
EC50 [5]: 0.848 nM | EC50 [1]: 1.15 nM | EC50 [2]: ~8.16 µM

B4: anti-CD20 (Ofatumumab) (antibody, V domains shown)
VH: EVQLVESGGGLVQPGRSLRLSCAASGFTFNDYAMHWVRQAPGKGLEWVSTISWNSGSIGYADSVKGRFTISRDNAKKSLYLQMNSLRAEDTALYYCAKDIQYGNYYYGMDVWGQGTTVTVSS
VL: EIVLTQSPATLSLSPGERATLSCRASQSVSSYLAWYQQKPGQAPRLLIYDASNRATGIPARFSGSGSGTDFTLTISSLEPEDFAVYYCQQRSNWPITFGQGTRLEIK
EC50 [6]: 490 nM | EC50 [7]: 3.07 nM
